Tests used:
VEGFR2 signaling pathway = test: Western blot of VEGF-A-induced phosphorylation in HUVECs; type: cell-based, human; details: 100 nM antibody
From the text: Western blots were pertbrmed using standard protocols, as previously described. The primary antibodies were purchased from Cell Signaling Technology and used at a 1,000-fold dilution for protein detection; the antibodies used are as follows: anti-VEGFR2 (clone 55B11), anti-phospho-VEGFR2 (Tyr1175; clone 19A10), anti-FAK, anti-phospho-FAK (Tyr397; cloneD20B1), anti-p42/44 MAPK, anti-phospho-p42/44 MAPK (Thr202/Tyr204; cloneD13.14.4E), anti-Akt, and anti-phospho-Akt (Ser473).

murine VEGFR2 protein = murine VEGFR2 protein (Mus musculus, UniProt P35918, DEL223-227); test: Cross-reactivity with murine VEGFR2; type: binding
[1] = tested on: HL-60 leukemia xenografts; test: HL-60 leukemia xenograft model; type: in vivo, NSG mice
Method: For systemic leukemia engraftment studies, NOD/SCID/IL2Rγ−/− (NSG) mice were obtained from the Animal Center of the Institute of Cellular and Organismic Biology, Academia Sinica. Six-week old females were intravenously injected with 5×10^6 HL-60 cells through the tail vein. Animals were monitored daily for general health, and body weights were measured twice weekly. […] Mice were observed daily for signs of toxicity, and the survival times were recorded. At the end-point of treatment, the visceral organs of each mouse were removed and fixed for further histological examination.
Tumors and indicated organs were dissected from mice and fixed in 4% paraformaldehyde overnight. Fixation and processing of specimens were performed in accordance with standard procedures. The specimens were embedded in paraffin and cut into […] sections. Rehydrated paraffin-embedded tissue sections were stained with Mayer's hematoxylin solution (Wako) for 5 minutes and washed with water for 1-2 minutes. The slides were then stained with eosin solution (Wako) for 10 minutes. Tissues were visualized with Tissue Gnostics microscopes.

PC-3 xenografts = test: PC-3 human prostate cancer xenograft model; type: in vivo, NOD/SCID mice
Method: Procedures involving animals and their care were conducted according to the guidelines of the Academia Sinica Institutional Animal Care and Utilization Committee in compliance with national and international laws and policies. Non-obese diabetic-severe combined immunodeficiency (NOD/SCID) mice were purchased from the National Laboratory Animal Center (Taiwan). The human prostate cancer xenograft tumor model was developed by subcutaneously injecting 2×10^6 PC-3 cells into the dorsal flank of a six-week old male mouse. Animals were monitored daily for general health, and body weights were measured twice weekly. Tumor size was measured with slide calipers and calculated as length×width^2×0.52. […] An antibody dose of 20 mg/kg was injected twice a week for four weeks. For combination therapy, docetaxel (ScinoPharm Taiwan) was also intravenously administered at a dose of 5 mg/kg once a week for three weeks. At the end of the experiment, tumor tissue and visceral organs were removed and fixed for histological analysis.
For tumor blood vessel studies, samples were fixed in OCT. Frozen blocks were cut into 50 μm sections, and frozen tumor tissue sections were fixed with 1% paraformaldehyde, permeabilized with 0.1% TRITON™-X 100, blocked with normal horse serum (Vector), and then incubated for 1 hour at room temperature (RT) with a 1:100 dilution of the primary antibody (rat anti-mouse CD31 (PECAM-1); BD Bioscience). Subsequently, the tissue sections were incubated with Alexa 549-conjugated goat anti-rat antibody (Invitrogen) at room temperature for 1 hour. Nuclei were stained with DAPI, and sections were then mounted with fluorescent mounting solution. Immunofluorescent images were acquired using a Zeiss Axiovert 200M microscope. Positive areas of CD31 endothelial cells were quantified by pixel area counting and normalized with DAPI staining using ImageJ software under low power magnification.
The frozen tumor tissue sections were fixed with 1% paratbrmaldehyde and permeabilized with 0.1% TRITON™-X 100, before being incubated with terminal deoxynucleotidyltransferase-mediated dUTP nick end labeling reaction mixture (Roche Diagnostics) at 37° C. for 1 hour. After washing three times with PBS, the slides were incubated with FITC-anti-DIG antibody (1:2000) and DAPI (1:500). Slides were mounted with mounting solution and visualized under a fluorescent microscope. Slides were independently examined by three individuals. Areas with TUNEL-positive cells were quantified by pixel area counting, and normalized to DAPI staining using ImageJ software.

[2] = tested on: VEGFR2 on the cell surface of HUVEC; test: Flow cytometry binding to HUVECs; type: cell-based, human; details: FACS; 1×10^10 cfu
Method: About 1×10^4 HUVEC were incubated with the selected anti-VEGFR2 phage clones at 4° C. for 1 hour in FACS buffer (PBS containing 1% fetal bovine serum). After the cells were washed with FACS buffer, they were first incubated with mouse anti-M13 phage Ab for 1 hr at 4° C., and then with R-phycoerythrin-conjugated goat anti-mouse IgG (Jackson Immuno Research) for 30 min at 4° C. Flow cytometry was performed with a FACSCantoII (BD), and emission fluorescence intensity was measured with FACS Diva software (BD) to quantitatively compare binding affinities.

VEGFR2-Fc [3] = target: T1, VEGFR2-Fc (Homo sapiens, UniProt P35968); test: Screening of anti-VEGFR2 phage clones by ELISA; type: binding; details: 1×10^9 cfu phage titer
T1 construct: purchased R&D Systems
Method: (§1) The selected phages were further examined by ELISA screening. The 96-well plates were coated with 1 μg/ml of VEGFR2-Fc, Met-Fc (R&D), or BSA (Sigma) protein in 0.1 M sodium bicarbonate overnight at 4° C. After blocking with 1% BSA in PBS (w/v) for 2 hr at room temperature, 70-randomly selected phage clones were added to the plates at a 1:2 dilution in 1% BSA, and incubated for 1 hr at room temperature. Following washes with PBST, the plates were incubated with a 1:2000 dilution of horseradish peroxidase (HRP)-conjugated mouse anti-M13 phage antibody (GE) for 1 hr. After washing with PBST, the colorimetric reaction was developed with the peroxidase substrate ortho-phenylenediamine (OPD; Sigma) plus H2O2 for 15 min, and then terminated by the addition of 3 N HCl. The absorbance at 490 nm was determined using a microplate reader (SpectraMax, Molecular Devices). Plasmid DNA of positive clones were isolated and sequenced using the pCANTAB5 sequencing primer set.

Met-Fc = test: Phage clone ELISA on control protein; type: binding
Method: as §1

VEGFR2-Fc [4] = target: T1, VEGFR2-Fc; test: ELISA binding of R2S12 and R2S12-AF scFv to VEGFR2-Fc (affinity maturation)
Method: (A) Affinity maturation for R2S12. […] Subsequently, the beads were washed four times with PBS containing 1% TWEEN™ 20. After four rounds of biopanning, the recovery rate of the phages was increased by 929-fold over that of the first round. (B) Comparison of the binding activity of the indicated concentrations of R2S12 and R2S12-AF scFv to VEGFR2-Fc protein, as assayed by ELISA. Error bar, SE.
Affinity maturation was performed as previously described. […] This synthetic library was used to perform biopanning for VEGFR2-Fc-immobilized DYNABEADS®. After four to five rounds of stringent in vitro biopanning, positive clones were screened and identified by ELISA.

[5] = 20 mg/kg i.v. twice weekly from day 3

T1 sequence (P35968 with tags, fused parts or gaps limits assumed): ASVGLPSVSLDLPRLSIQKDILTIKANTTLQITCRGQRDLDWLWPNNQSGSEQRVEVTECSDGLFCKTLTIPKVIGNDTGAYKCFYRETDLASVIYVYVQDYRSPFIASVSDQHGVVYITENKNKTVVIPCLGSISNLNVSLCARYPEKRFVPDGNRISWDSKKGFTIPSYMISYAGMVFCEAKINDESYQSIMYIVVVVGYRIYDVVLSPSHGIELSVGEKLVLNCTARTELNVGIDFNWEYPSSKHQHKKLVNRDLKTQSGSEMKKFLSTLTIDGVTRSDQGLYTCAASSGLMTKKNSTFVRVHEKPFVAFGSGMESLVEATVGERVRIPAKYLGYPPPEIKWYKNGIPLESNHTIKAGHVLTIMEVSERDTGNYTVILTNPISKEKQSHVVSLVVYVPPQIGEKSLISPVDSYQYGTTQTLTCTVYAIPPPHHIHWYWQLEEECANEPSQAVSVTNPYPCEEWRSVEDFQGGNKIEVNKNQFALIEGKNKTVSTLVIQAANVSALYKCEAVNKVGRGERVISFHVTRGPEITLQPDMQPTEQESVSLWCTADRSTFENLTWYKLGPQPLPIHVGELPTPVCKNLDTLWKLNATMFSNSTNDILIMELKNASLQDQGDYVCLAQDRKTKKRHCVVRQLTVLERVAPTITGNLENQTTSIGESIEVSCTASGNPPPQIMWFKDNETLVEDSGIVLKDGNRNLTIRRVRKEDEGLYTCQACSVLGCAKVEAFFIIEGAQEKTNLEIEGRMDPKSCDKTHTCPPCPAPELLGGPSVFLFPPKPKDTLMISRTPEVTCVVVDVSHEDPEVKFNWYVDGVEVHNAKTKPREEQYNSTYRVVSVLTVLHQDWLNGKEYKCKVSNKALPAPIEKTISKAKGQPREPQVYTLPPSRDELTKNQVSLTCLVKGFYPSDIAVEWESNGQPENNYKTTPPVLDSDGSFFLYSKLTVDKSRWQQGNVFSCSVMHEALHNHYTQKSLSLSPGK
Sequence of murine VEGFR2 protein (P35918 with tags, fused parts or gaps DEL223-227): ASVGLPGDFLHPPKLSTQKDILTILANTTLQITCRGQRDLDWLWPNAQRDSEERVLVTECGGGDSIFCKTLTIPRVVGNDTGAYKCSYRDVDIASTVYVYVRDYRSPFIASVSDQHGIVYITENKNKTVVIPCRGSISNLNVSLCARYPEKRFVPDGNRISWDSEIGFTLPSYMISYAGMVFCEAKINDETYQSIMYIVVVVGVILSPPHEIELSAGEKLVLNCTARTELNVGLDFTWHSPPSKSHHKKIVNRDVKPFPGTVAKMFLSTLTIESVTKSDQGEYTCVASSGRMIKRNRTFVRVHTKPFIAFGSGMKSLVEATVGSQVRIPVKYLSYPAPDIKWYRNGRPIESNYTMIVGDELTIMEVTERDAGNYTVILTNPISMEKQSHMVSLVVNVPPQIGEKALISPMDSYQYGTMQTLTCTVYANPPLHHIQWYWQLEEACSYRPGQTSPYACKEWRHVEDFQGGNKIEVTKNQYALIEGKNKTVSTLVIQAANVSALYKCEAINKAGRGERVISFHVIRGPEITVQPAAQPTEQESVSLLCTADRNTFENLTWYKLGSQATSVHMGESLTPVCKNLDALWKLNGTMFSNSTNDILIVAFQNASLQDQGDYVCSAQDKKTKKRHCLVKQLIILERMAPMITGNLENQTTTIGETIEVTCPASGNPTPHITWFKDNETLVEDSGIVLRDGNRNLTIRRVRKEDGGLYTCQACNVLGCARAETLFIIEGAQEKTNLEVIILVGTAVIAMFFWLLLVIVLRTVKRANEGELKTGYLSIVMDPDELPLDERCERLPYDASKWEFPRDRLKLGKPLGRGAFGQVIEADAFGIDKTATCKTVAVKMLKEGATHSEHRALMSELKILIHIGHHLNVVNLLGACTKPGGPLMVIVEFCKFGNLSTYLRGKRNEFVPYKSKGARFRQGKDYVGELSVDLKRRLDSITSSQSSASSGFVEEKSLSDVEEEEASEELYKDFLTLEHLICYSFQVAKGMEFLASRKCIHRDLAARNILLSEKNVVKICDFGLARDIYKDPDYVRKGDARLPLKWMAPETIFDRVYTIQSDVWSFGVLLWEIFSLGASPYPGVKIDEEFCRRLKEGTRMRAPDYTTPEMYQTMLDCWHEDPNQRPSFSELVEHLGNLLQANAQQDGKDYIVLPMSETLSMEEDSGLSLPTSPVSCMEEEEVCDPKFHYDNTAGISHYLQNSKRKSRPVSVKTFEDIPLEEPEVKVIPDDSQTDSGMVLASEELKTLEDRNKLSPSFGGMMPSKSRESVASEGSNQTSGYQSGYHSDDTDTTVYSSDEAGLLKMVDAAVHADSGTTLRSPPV

For “IMC-1121B: FDA-approved anti-VEGFR2 human antibody (Ramucirumab), expressed by the applicant as human IgG1 [reference compound]”, the FAK phosphorylation (VEGFR2 signaling pathway) was “only marginally reduced”, the “cross-reaction / binding to murine VEGFR2” value (murine VEGFR2 protein) was “not” and the median survival [1, 5] was 43 days. For the same molecule, the survival time [1, 5] was 56 days, the “lymph nodes with leukemia infiltration” value ([1]; n=9 per group) was “five of nine” and the tumor growth reduction (PC-3 xenografts; by day 38, antibody 20 mg/kg i.v. twice a week, docetaxel 5 mg/kg i.v. once a week) was 45%. For the same molecule, the “changes in body weight during the treatment period” value (PC-3 xenografts; compared to the NHIgG group or docetaxel alone) was “no significant changes” and the “docetaxel-induced toxicity (body weight as surrogate)” value (PC-3 xenografts; in combination with docetaxel) was “do not enhance”.

B1: R2PC12: phage-displayed human scFv clone binding VEGFR2; VH CDR1-3 SEQ ID NO: 6-8, VL CDR1/CDR3 SEQ ID NO: 9, 10 (antibody, V domains shown)
VH: QVNLRESGGGLVKPGGSLRLSCAASGFTFGSYTMNWVRQAPGKGLEWVASITSGSSYIFYTDSVKGRFTISRDNSRSSLFLQMNSLRAEDTAIYYCARGSASAFDIWGQGTMVTVSS
VL: DIQMTQSPSSLSASVGDRVTITCKASDDIINYLNWYQQKPGEAPKLLIYDASILETGVPSRFSGSGSGTDFTFTISSLQPEDIATYYCQQYDILPLTFGGGTKLEIK
B1 was tested, and the “binding of phage clones to VEGFR2 on HUVEC cell surface” value [2] was “greatest reactivity”, the “binding of phage clones to VEGFR2-Fc” value (VEGFR2-Fc [3]) was “bind highly” and the “binding of phage clones to c-Met-Fc control protein” value (Met-Fc) was “not”.

B2: R2S12AF: affinity-matured scFv clone of R2S12; VH SEQ ID NO: 76, VL SEQ ID NO: 78, VL-CDR3 QQLDDIPIT (antibody, V domains shown)
VH: QVNLRESGGGLVKPGGSLRLSCAASGFTFGSYTMNWVRQAPGKGLEWVASITSGSSYIFYTDSVKGRFTISRDNSRSSLFLQMNSLRAEDTAIYYCARGSASAFDIWGQGTMVTVSS
VL: DIQMTQSPSSLSASVGDRVTITCKASDDIINYLNWYQQKPGEAPKLLIYDASILETGVPSRFSGSGSGTDFTFTISSLQPEDIATYYCQQLDDIPITFGGGTKLEIK
modifications: scFv linker; VH region of R2S12 or R2S12-AF; VL region of R2S12AF
For B2, the “binding activity to VEGFR2-Fc compared with parental clone R2S12” value (VEGFR2-Fc [4]) was “superior binding activity”.
